The text below walks through data of patent publication US7462695B2, “Insect chymotrypsin and inhibitors thereof” (Hexima Limited, priority 2003, dated 2008).

Test [1] concerns the target bovine chymotrypsin (Bos taurus, UniProt P00766). The test is described as follows: Inhibition of bovine chymotrypsin. It counts as biochemical. The note with it: 100 ng bovine chymotrypsin, pH 10; for % Inhibition BC: at maximum concentration tested. As for the experimental part: (§1) Several proteinase inhibitors were tested for their ability to inhibit the activity of the insensitive chymotrypsins. The buffer used for all assays was 500 mM CAPS, 75 mM NaCl, 2.5 mM MgCl2 at pH 10.

The test system of test [2] is chymotrypsin activity in unfractionated gut extracts from H. punctigera. Kind of test: Chymotrypsin activity in unfractionated gut extracts with proteinase inhibitors (FIG. 3). Type of test: biochemical, Helicoverpa punctigera. Particulars: larvae raised on haricot bean diet without added proteinase inhibitors; substrate SAAPFpNA. The method, then:
FIG. 3 is a graphical representation showing the effect of various proteinase inhibitors on the chymotrypsin activity in unfractionated gut extracts from H. punctigera. Proteinase inhibitors were mixed with 1 μg of protein from an unfractionated gut extract before incubation with the chymotrypsin substrate N-succinyl-Ala-Ala-Pro-Phe-p-nitroanilide. Inhibition is expressed as a percentage of the total activity in the control samples.
Fourth-instar larvae were killed using ethyl-acetate prior the removal of individual gut which were then homogenized in a mortar and pestle in an equal amount [(w/v)] of 50 mM Tris-HCl, pH 8.0 containing 100 μM benzamidine. Insoluble material was removed by centrifugation at 20,000 rpm for 15 min at 4° C. and total protein concentration determined using the Bradford method (Bradford, Anal Biochem 72: 248-254, 1976) with reagents from BioRad and BSA as a standard.
Unfractionated gut extract containing approximately 1 μg of buffer soluble protein was added to 10 μL CAPS buffer (0.5 M, 3-[cyclohexylamino]-1-propane-sulfonic acid, pH 10) and made to a final volume of 100 μL in individual wells of a 96 well microtiter plate. Proteinase inhibitors were added over a range of concentrations and incubated for 15 min at 25° C. Bovine chymotrypsin (100 ng) was used as a positive control, both for activity and inhibition. The chromogenic artificial substrate SAAPFpNA (N-Succinyl-L-alanyl-L-alanyl-L-prolyl-L-phenylalanine 4-nitroanilide) was then added to a final concentration of 1 mM and hydrolysis of the substrate was measured at 405 nm using the SpectraMax 250 microtiter plate reader (Molecular Devices).

Test [3] concerns chymotrypsin activity in gut extracts of H. punctigera larvae. Kind of test: Inhibition of chymotrypsin activity in individual larval gut extracts (FIG. 2F). Type of test: biochemical, Helicoverpa punctigera. Particulars: pre-incubated with 80 nM. An excerpt: FIG. 2 is a graphical representation showing growth of H. punctigera larvae fed on either low protein haricot bean artificial diet or cotton leaf artificial diet, in the presence or absence of 0.26% (w/v) NaPIs. Weight gain (mg) was monitored for 21 days. […] (A) Growth of larvae. (B) Relative size of larvae at 21 days after feeding on cotton artificial diet, in the presence or absence of 0.26% NaPIs. […] (C) The effect of NaPIs on gut trypsin and chymotrypsin activity. When each H. punctigera larva reached the late fourth/early fifth instar stage of development, the gut was removed and gut extract prepared prior to assays for trypsin and chymotrypsin activity. […] Trypsin activity was determined using BApNA substrate and chymotrypsin activity with SAAPFpNA substrate. Units of activity are expressed as change in absorbance at 405 nm/min/mg gut extract protein (±standard deviation). […] Trypsin activity was determined using BApNA substrate and chymotrypsin activity with SAAPFpNA substrate. Units of activity are expressed as change in absorbance at 405 nm/min/mg faecal extract protein (±standard deviation). […] Frass extracts were analysed on 15% ((w/v)) SDS-PAGE and transferred to nitrocellulose. […] Units of activity are expressed as substrate hydrolysis at 405 nm/min/mg extract protein (±standard deviation). […] Trypsin activity was determined using BApNA substrate. […]

For test [4], the target named is NaPI-insensitive chymotrypsins from H. punctigera (Helicoverpa punctigera, UniProt A0PGE0). Kind of test: Inhibition of NaPI-insensitive chymotrypsin (gut extract depleted of trypsins and NaPI-sensitive chymotrypsins). Type of test: biochemical. The note with it: pH 10, 30 min preincubation at 30° C. As for the experimental part: The midgut was dissected from 100 fourth instar larvae and buffer soluble extracts were prepared. The gut extract was depleted of NaPI-sensitive proteases by passage through an affinity column composed of immobilized NAPI protein (C1, C2, T1-T4). […] This preparation of unbound material was used to study the pH optimum, substrate preference and effect of a range of proteinase inhibitors on the activity of the NaPI-insensitive proteinase. […] The best substrate for enzyme assays was determined using seven different commercial substrates.
as §1

In test [5] the test system is trypsin activity in gut extracts. The note with it: in vitro, cited from earlier work.
In test [6] the test system is chymotrypsin from the gut of H. zea larvae. The note with it: cited from earlier work.
Test [7] concerns Agrotis ipsilon (black cutworm). The note with it: after exposure in the diet; cited from earlier work.

Some results are limits rather than exact numbers.

NaPI-insensitive chymotrypsins from H. punctigera, sequence (A0PGE0 entry or part of it): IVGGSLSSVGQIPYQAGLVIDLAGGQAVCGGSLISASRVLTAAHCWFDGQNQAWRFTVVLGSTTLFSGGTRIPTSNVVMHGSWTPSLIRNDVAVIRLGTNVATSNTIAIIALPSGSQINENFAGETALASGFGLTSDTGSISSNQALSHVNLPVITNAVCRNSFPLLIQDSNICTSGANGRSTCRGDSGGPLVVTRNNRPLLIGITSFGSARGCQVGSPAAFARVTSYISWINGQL

For `CC(C)C[C@H](NC(=O)[C@@H](NC(=O)N[C@@H](Cc1ccccc1)C(=O)O)[C@@H]1CCN=C(N)N1)C(=O)N[C@H](C=O)Cc1ccccc1` [Chymostatin, reference compound], the “% Inhibition BC” value in test [1] was determined as 100%. The “inhibition of gut chymotrypsin activity (in words)” value in test [2] was “totally inhibited”. Besides, the “inhibition of chymotrypsin activity, extracts from control and NaPI-fed larvae” value in test [3] was “all chymotrypsin activity was abolished”.

B1: SBTI: soybean trypsin inhibitor (protein, UniProt P01070 25-205, looked up)
Trypsin inhibitor A: DFVLDNEGNPLENGGTYYILSDITAFGGIRAAPTGNERCPLTVVQSRNELDKGIGTIISSPYRIRFIAEGHPLSLKFDSFAVIMLCVGIPTEWSVVEDLPEGPAVKIGENKDAMDGWFRLERVSDDEFNNYKLVFCPQQAEDDKCGDIGISIDHDDGTRRLVVSKNKPLVVQFQKLDKESL
On to B1, for which, in test [4] (at maximum concentration tested), the “% Inhibition Insensitive” value is reported as 82%. Further, in test [4], the half-inhibitory concentration (IC50) (usually the concentration that gives 50% inhibition) is 33 µM. Also, in test [1], the IC50 was found to be 13 µM and the “% Inhibition BC” value is 94%. The “inhibition of gut chymotrypsin activity (in words)” value in test [2] is listed as “failed to abolish all the chymotrysin activity”. The “inhibition of gut trypsin activity in larvae that had consumed SBTI” value in test [5] (48 h on diet with 1% SBTI) was 3%. For the same molecule, the “inhibition of trypsin activity in gut extracts from control larvae” value in test [5] is given as 74%. In test [6], the “inhibition of chymotrypsin activity from the gut of insects with prior exposure to SBTI in the diet” value is 35% and the “inhibition of chymotrypsin from the gut of control insects” value was 95%. Moreover, in test [7], the “reduction in total gut proteolytic activity” value was not above 70%.
